In article PMC4297941 (Redox Biology, 2014):
Where a chain is given by its changes, count along the chain named. Names may count otherwise. Blank lines part the entries; values can stand above or below the binder they belong to.

Experiments:
[1] = molecular target: T1, wild type human endothelial nitric oxide synthase (eNOS), histidine tagged, recombinant (human), P29474; test: SEC; conditions: remark: other sources report otherwise
T1 chain: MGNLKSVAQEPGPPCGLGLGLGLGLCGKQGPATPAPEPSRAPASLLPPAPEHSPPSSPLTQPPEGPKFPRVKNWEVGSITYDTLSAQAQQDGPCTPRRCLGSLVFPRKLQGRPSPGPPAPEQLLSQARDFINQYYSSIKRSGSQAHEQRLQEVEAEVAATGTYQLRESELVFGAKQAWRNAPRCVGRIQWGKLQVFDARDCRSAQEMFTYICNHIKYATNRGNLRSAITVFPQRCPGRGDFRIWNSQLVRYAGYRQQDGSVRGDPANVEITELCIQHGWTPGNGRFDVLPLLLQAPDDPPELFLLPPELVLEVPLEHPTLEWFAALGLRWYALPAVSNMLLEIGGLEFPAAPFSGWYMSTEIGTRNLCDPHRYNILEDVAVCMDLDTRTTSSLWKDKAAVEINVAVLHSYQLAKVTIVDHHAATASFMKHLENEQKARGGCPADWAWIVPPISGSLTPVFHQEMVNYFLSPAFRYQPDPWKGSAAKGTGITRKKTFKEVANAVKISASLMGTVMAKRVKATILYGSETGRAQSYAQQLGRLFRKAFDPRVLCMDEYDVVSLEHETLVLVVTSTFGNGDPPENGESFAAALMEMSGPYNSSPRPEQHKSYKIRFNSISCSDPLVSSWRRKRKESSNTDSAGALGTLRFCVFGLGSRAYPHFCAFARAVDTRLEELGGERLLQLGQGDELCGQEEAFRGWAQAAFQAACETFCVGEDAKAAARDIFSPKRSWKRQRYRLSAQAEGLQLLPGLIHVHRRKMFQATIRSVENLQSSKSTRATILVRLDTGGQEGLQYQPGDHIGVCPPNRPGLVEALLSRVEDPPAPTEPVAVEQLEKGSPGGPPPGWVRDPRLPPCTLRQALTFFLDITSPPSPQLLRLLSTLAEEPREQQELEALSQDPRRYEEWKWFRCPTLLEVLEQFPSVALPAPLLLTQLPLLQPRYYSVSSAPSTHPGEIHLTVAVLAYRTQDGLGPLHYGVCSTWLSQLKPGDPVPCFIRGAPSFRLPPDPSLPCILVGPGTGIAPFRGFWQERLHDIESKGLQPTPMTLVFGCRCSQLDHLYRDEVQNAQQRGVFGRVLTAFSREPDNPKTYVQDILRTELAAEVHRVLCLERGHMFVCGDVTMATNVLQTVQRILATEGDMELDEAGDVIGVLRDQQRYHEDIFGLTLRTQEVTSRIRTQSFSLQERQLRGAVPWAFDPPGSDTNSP

SEC = molecular target: the molecule itself; test: SEC

stoichiometry N [1]: 2
B1: wild type human endothelial nitric oxide synthase (eNOS), histidine tagged, recombinant, P29474 1-1203 (enzyme)
chain: T1 chain

B2: C94R/C99R eNOS mutant, histidine tagged, recombinant (enzyme, human, UniProt P29474 1-1203, looked up)
chain: T1 chain with C94R, C99R
stoichiometry N (SEC): 2
